Data reported in US20230313187A1, “MODIFICATIONS OF MAMMALIAN CELLS USING ARTIFICIAL MICRO-RNA TO ALTER THEIR PROPERTIES AND THE COMPOSITIONS OF THEIR PRODUCTS” (DNA TWOPOINTO INC., priority 2020, published 2023).

Test system: Cricetulus griseus dihydrofolate reductase mRNA
Experiment: Growth of a clonal cell line with amiRNA targeted toward dihydrofolate reductase with/without HT and MTX
Format: cell-based
Conditions: 50 nM MTX, no HT
Procedure: A monoclonal line (C426) was derived from the pool transfected with the transposon comprising multi-hairpin amiRNA with nucleotide sequence SEQ ID NO: 210 and selected with 800 μg/ml G418 described in Section 6.5.1. Growth of this clonal cell line in the presence and absence of HT and in the absence of HT and presence of 50 nM MTX was compared with the growth of a control cell line from which C426 was derived.
Cells were transferred to Sigma Advanced Fed Batch media with 5 uM glutamine and to an initial a density of 0.3×10^6 live cells/ml. Parallel cultures were grown (a) in the presence of HT, (b) in the absence of HT and (c) in the absence of HT and the presence of 50 nM MTX. At day 4, all cultures were diluted to adjust viable cell densities to 0.3×10^6 cell/ml. At day 8, all cultures were again diluted to adjust viable cell densities to 0.3×10^6 cell/ml. At day 13, all cultures except for the culture of C426 with 50 nM MTX were again diluted to adjust viable cell densities to 0.3×10^6 cell/ml.
Table 12. Growth of a clonal cell line with amiRNA targeted toward dihydrofolate reductase. […] Viable cell densities were measured at various times after the beginning of the experiment: the cell line is shown in column A, the presence of HT is indicated in column B and the concentration of MTX is shown in column C. […]

B1: SEQ ID NO: 210: three-hairpin amiRNA, guides SEQ ID NOs 82, 83, 84 complementary to Cricetulus griseus dihydrofolate reductase mRNA (nucleic acid)
chain: ATCTGATCTTCTGAAGAAAATATATTTCTTTTTATTCATAGCTCTTAACTAGTGGTGATAGCAATGTCAGCAGTGCCTTAACTCATAGATCTAAAGCCAAGTGAAGCCACAGATGTTGGCTTTAGCTCTATGAGTTCAAGTAAGGTTGACCATACTCTACTCTAGAGTTGTGTTTTAATGTATATTAATGTTACTAATGTGTTTACTAGTGGTGATAGCAATGTCAGCAGTGCCTTAGAGTACAACAGTTGCCCAGGGTGAAGCCACAGATGCCTGGGCAACCGTTGTACTCTCAAGTAAGGTTGACCATACTCTACTCTAGGTTATTTTTAGTATGATTCTGTAAAAATGAATTAATACTAACTAGTGGTGATAGCAATGTCAGCAGTGCCTTTGTTTAGAATTATACAGGGGCGTGAAGCCACAGATGGCCCCTGTATCATTCTAAACACAAGTAAGGTTGACCATACTCTACTCTAGTCAGTTTTATTGATAGTCTTTTCAGTATTATTGATAATCTT
effect of MTX in the growth media on growth: sensitizes cells to the presence of MTX in the growth media
